Experimental data as given in patent US20200247894A1 (Regeneron, published 2020).
Where a chain is given by its changes, count along the chain named.

Tests used:
[1] = target: T1, Human IL2Rγ extracellular domain expressed with a C-terminal mouse IgG2a Fc tag (human); assay: SPR Biacore 4000, anti-hFc-captured mAb, 25 C
T1 construct: whole entry is the Fc-fused construct; also called hIL-2Rg-mFc
T1 chain: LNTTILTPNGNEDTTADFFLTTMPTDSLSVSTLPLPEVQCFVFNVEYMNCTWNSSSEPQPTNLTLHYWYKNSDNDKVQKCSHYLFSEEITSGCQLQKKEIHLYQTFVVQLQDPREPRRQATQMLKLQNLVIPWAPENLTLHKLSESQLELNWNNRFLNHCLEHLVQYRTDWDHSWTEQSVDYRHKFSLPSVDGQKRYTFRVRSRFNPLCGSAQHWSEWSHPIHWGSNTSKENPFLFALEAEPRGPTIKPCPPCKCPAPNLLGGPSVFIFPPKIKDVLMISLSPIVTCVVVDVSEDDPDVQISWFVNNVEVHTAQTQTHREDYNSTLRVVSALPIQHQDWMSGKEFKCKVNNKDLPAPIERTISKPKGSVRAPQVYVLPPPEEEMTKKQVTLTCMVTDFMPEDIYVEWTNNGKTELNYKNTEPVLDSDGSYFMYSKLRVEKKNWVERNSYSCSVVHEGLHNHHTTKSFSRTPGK
Procedure, shortened: (§1)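 HBS-ET running buffer (10 mM HEPES, 150 mM NaCl, 3 mM EDTA, 0.05% Tween-20, pH 7.4). mAb capture via anti-human Fc. Dissociation monitored 8-10 min. 1:1 kinetic fit; KD, t1/2 derived from ka/kd.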

[2] = target: T2, Rat IL2Rγ extracellular domain expressed with a C-terminal myc-myc-hexahistidine tag (rat); assay: SPR Biacore 4000, anti-hFc-captured mAb, 25 C
T2 construct: whole entry is the tagged construct; also called rIL-2Rg-MMH; rat IL-2Rg-MMH
T2 chain: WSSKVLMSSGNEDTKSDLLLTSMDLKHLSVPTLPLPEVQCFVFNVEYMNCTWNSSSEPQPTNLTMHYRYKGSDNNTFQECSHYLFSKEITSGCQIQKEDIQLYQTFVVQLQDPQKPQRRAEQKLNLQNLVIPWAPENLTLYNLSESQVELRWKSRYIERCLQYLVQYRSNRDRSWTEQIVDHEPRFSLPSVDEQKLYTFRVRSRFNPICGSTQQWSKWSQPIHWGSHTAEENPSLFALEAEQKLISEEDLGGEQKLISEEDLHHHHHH
Procedure, shortened: as §1

[3] = target: T3, Mouse IL2Rγ extracellular domain expressed with a C-terminal myc-myc-hexahistidine tag (mouse); assay: SPR Biacore 4000, anti-hFc-captured mAb, 25 C
T3 construct: whole entry is the tagged construct; also called mIL-2Rg-MMH
T3 chain: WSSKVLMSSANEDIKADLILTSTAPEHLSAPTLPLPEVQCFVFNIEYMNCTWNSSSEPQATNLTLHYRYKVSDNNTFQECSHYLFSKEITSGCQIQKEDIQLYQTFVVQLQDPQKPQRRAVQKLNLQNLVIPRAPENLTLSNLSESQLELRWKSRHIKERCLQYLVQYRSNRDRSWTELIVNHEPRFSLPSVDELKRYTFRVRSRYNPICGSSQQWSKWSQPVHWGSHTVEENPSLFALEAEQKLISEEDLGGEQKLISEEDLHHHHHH
Procedure, shortened: as §1

[4] = target: T1, Human IL2Rγ extracellular domain …; assay: SPR Biacore 4000, anti-hFc-captured mAb, 37 C; computed with kd fixed at 1.00E-05
Protocol: (§2) Equilibrium dissociation constants (KD values) for IL-2Rγ binding to purified anti-IL2Rγ monoclonal antibodies were determined using a Biacore 4000 instrument equipped with a real-time surface plasmon resonance biosensor. All binding studies were performed in 10 mM HEPES, 150 mM NaCl, 3 mM EDTA, and 0.05% v/v Surfactant Tween-20, pH 7.4 (HBS-ET) running buffer at 25° C. and 37° C. The Biacore sensor surface was first derivatized by amine coupling with a monoclonal mouse anti-human Fc antibody (GE, # BR-1008-39) to capture anti-IL2Rγ monoclonal antibodies.
(§3) The dissociation of monoclonal antibody bound IL2Rγ reagents were monitored for 8-10 minutes in HBS-ET running buffer. Kinetic association (kₐ) and dissociation (kd) rate constants were determined by fitting the real-time sensorgrams to a 1:1 binding model using Scrubber 2.0c curve fitting software. Binding dissociation equilibrium constants (KD) and dissociative half-lives (t_{1/2}) were calculated from the kinetic rate constants as: […]

[5] = target: T1, Human IL2Rγ extracellular domain …; assay: SPR Biacore 4000, anti-hFc-captured mAb, 37 C; no dissociation observed, kd manually fixed at 1.00E-05
[6] = target: T1, Human IL2Rγ extracellular domain …; assay: SPR Biacore 4000, anti-hFc-captured mAb, 37 C
Procedure, shortened: as §1

[7] = target: T2, Rat IL2Rγ extracellular domain …; assay: SPR Biacore 4000, anti-hFc-captured mAb, 37 C
Procedure, shortened: as §1

[8] = target: T3, Mouse IL2Rγ extracellular domain …; assay: SPR Biacore 4000, anti-hFc-captured mAb, 37 C
Procedure, shortened: as §1

[9] = target: T4, Macaca fascicularis IL2Rγ extracellular domain expressed with a C-terminal myc-myc-hexahistidine tag (Macaca fascicularis); assay: SPR Biacore 4000, anti-hFc-captured mAb, 37 C
T4 construct: whole entry is the tagged construct; also called mfIL-2Rg-MMH
T4 chain: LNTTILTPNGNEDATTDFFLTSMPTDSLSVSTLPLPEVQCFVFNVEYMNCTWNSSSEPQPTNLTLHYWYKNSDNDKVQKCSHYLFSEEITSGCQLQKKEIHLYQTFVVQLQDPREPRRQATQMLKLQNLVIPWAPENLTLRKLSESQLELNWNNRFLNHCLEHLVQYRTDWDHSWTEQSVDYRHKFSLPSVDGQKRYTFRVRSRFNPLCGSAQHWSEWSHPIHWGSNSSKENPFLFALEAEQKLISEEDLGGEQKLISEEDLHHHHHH
Procedure, shortened: as §1

[10] = target: T5, Human IL2Rγ extracellular domain expressed with a C-terminal myc-myc-hexahistidine tag (human); assay: SPR Biacore 4000, mAb captured by anti-hFc, HBS-ET, 25C; 25 C
T5 construct: also called hIL-2Rg-MMH; hIL-2RG-MMH
T5 chain: T4 chain with A14T, T16A, S22T, R141H, S228T
Protocol: as §2, §3

[11] = target: T6, Macaca fascicularis IL2Rγ extracellular domain expressed with a C-terminal myc-myc-hexahistidine tag (Macaca fascicularis); assay: SPR Biacore 4000, mAb captured by anti-hFc, 37C, dissociation in PBS-T pH 6.0
T6 construct: also called mfIL-2Rg-MMH; mfIL-2RG-MMH
T6 chain: T4 chain
Procedure, shortened: (§4)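 Anti-IL2Rγ mAbs carrying human IgG4 Fc were captured on a CM5 surface amine-coupled with mouse anti-human Fc antibody. IL2Rγ-MMH was bound, and dissociation was followed for 6 minutes in PBS-T running buffer. kd came from fitting the real-time sensorgrams to a 1:1 binding model.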

[12] = target: T6, Macaca fascicularis IL2Rγ extracellular …; assay: SPR Biacore 4000, mAb captured by anti-hFc, 37C, dissociation in PBS-T pH 7.4
Procedure, shortened: as §4

[13] = target: T6, Macaca fascicularis IL2Rγ extracellular …; assay: SPR Biacore 4000, mAb captured by anti-hFc, HBS-ET, 25C
Procedure, shortened: as §1

B1: H4H12922P2 (antibody, human IgG4 S228P, kappa, V domains shown)
VH: QVQLVESGGGVVKPGGSLRLSCAASGFTFSNSGIHWVRQAPGKGLEWVALISYAGSNKYYADSVKGRFTISRDNSKNTLSLQMNSLRAEDTAVYYCAKEVWTGTYDSFDMWGRGTMVTVSS
VL: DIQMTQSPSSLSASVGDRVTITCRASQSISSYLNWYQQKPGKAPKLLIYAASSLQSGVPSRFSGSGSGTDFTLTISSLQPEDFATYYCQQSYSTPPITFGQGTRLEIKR
notes: fully human anti-IL2Rgamma mAb, human IgG4 Fc; also called REGN7256
- 50 nM Ag Bound [1]: 82 RU
- Kd [1]: 0.0564 nM
- koff [1]: 1.75e-05 s⁻¹
- kon [1]: 310000 M⁻¹ s⁻¹
- t1/2 [1]: 661 min
- 100 nM Ag Bound [2]: 3 RU
- binding result [2]: no binding (tested: 100 nM)
- 100 nM Ag Bound [3]: 2 RU
- binding result [3]: no binding (tested: 100 nM)
- Kd [4]: ≤ 0.0448 nM
- t1/2 [4]: ≥ 1160 min
- koff [5]: ≤ 1e-05 s⁻¹
- 50 nM Ag Bound [6]: 47 RU
- kon [6]: 223000 M⁻¹ s⁻¹
- 100 nM Ag Bound [7]: 5 RU
- 100 nM Ag Bound [8]: 2 RU
- 100 nM Ag Bound [9]: 44 RU
- Kd [9]: 4.18 nM
- koff [9]: 0.00129 s⁻¹
- kon [9]: 308000 M⁻¹ s⁻¹
- t1/2 [9]: 9 min

B2: H4H12874P (antibody, human IgG4 S228P, kappa, V domains shown)
VH: QVQLVESGGGVVQPGRSLRLSCAASGFNFRNFGMHWVRQAPGKGLEWVAGILYDGSSKYYADSVKDRFTISRDNSKNTLFLQMNSLRAEDTAMYYCAKEEDTAMVPFDSWGPGTLVTVSS
VL: DIQLTQSPSFLSASVGDRVTITCWASQGISSYLAWYQQKPGKAPTLLIYAASTLQSGVPSRFSGSGSGTEFTLTISSLQPEDFASYYCQQLKSYPLTFGGGTKVEIKR
notes: fully human anti-IL2Rgamma mAb, human IgG4 Fc
- 50 nM Ag Bound [1]: 15 RU
- Kd [1]: 4.18 nM
- koff [1]: 8.35e-05 s⁻¹
- kon [1]: 20000 M⁻¹ s⁻¹
- t1/2 [1]: 138 min
- 100 nM Ag Bound [2]: 1 RU
- binding result [2]: no binding (tested: 100 nM)
- 100 nM Ag Bound [3]: 1 RU
- binding result [3]: no binding (tested: 100 nM)
- Kd [4]: ≤ 0.303 nM
- t1/2 [4]: ≥ 1160 min
- koff [5]: ≤ 1e-05 s⁻¹
- 50 nM Ag Bound [6]: 14 RU
- kon [6]: 33000 M⁻¹ s⁻¹
- 100 nM Ag Bound [7]: 3 RU
- 100 nM Ag Bound [8]: 0 RU
- 100 nM Ag Bound [9]: 43 RU
- Kd [9]: 12.4 nM
- koff [9]: 0.00116 s⁻¹
- kon [9]: 93300 M⁻¹ s⁻¹
- t1/2 [9]: 10 min

B3: H4H12889P (antibody, human IgG4 S228P, kappa, V domains shown)
VH: EVQLVESGGGLVQPGGSLRLSCAASGFIFSSYEMHWVRQAPGKGLEWISYISSSGTTIYYADSVKGRFTISRDNAKNSLYLHMNSLRAEDTAVYYCTRARITGTFDVFDIWGQGTMVTVSS
VL: DIQMTQSPSSLSASVGDRVTITCRASQSISSYLNWYQQKPGKAPKLLIFAASNLQSGVPSRFSGSRSGTDFTLTISSLQPEDFATYYCQQNYNIPYTFGQGTKLEIKR
notes: fully human anti-IL2Rgamma mAb, human IgG4 Fc; also called REGN7257
- 50 nM Ag Bound [1]: 69 RU
- Kd [1]: 0.0447 nM
- koff [1]: 1.55e-05 s⁻¹
- kon [1]: 347000 M⁻¹ s⁻¹
- t1/2 [1]: 746 min
- 100 nM Ag Bound [2]: 1 RU
- binding result [2]: no binding (tested: 100 nM)
- 100 nM Ag Bound [3]: 1 RU
- binding result [3]: no binding (tested: 100 nM)
- Kd [4]: ≤ 0.042 nM
- t1/2 [4]: ≥ 1160 min
- koff [5]: ≤ 1e-05 s⁻¹
- 50 nM Ag Bound [6]: 39 RU
- kon [6]: 238000 M⁻¹ s⁻¹
- 100 nM Ag Bound [7]: 2 RU
- 100 nM Ag Bound [8]: 0 RU
- 100 nM Ag Bound [9]: 29 RU
- Kd [9]: 4.63 nM
- koff [9]: 0.00171 s⁻¹
- kon [9]: 369000 M⁻¹ s⁻¹
- t1/2 [9]: 7 min

B4: H4H12927P2 (antibody, human IgG4 S228P, kappa, V domains shown)
VH: EVQLVESGGGVVRPGGSLRLSCATSGFTFDDYGMSWVRQVPGKGLEWVSSVNRNGGTTDYADSVKGRFTISRDNAKRSLFLQMNSLRAEDTALYHCATGELFFDYWGQGTLVTVSS
VL: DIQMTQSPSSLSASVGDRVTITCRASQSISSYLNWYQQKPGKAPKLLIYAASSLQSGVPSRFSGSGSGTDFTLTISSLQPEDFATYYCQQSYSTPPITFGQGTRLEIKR
notes: anti-IL2Rγ monoclonal antibody expressed with human IgG4 Fc
- Kd [10]: 96.5 nM
- koff [10]: 0.00555 s⁻¹
- kon [10]: 57500 M⁻¹ s⁻¹
- t1/2 [10]: 2.1 min
- 100 nM Ag Bound (RU) [11]: 22 RU
- koff [11]: 0.0129 s⁻¹
- t1/2 [11]: 0.9 min
- 100 nM Ag Bound (RU) [12]: 27 RU
- koff [12]: 0.00596 s⁻¹
- t1/2 [12]: 1.9 min
- 100 nM Ag Bound [13]: 12 RU
- Kd [13]: 238 nM
- koff [13]: 0.00686 s⁻¹
- kon [13]: 28800 M⁻¹ s⁻¹
- t1/2 [13]: 1.7 min

B5: H4H12863P (antibody, human IgG4 S228P, kappa, V domains shown)
VH: QVQLVESGGGVVQPGRSLRLSCTASGFTFRSYDMYWVRQAPGKGLEWVSVITYDGNNKYYADSVKGRFTISRDNSKNTLFLQMSSLRPEDTAVYYCAKRGLIWVGESFDYWGQGTLVTVSS
VL: DIQMTQSPSTLSASVGDRVTITCRASQSINSWLAWYQQKPGKAPNLLIYKASSLESGVPSRFSGSGSGTEFTLTISSLQPDDFATYYCQQYKSYSWTFGQGTKVEIKR
notes: as for B2
- 50 nM Ag Bound [1]: 115 RU
- Kd [1]: 0.0853 nM
- koff [1]: 3.41e-05 s⁻¹
- kon [1]: 399000 M⁻¹ s⁻¹
- t1/2 [1]: 339 min
- 100 nM Ag Bound [2]: 1 RU
- binding result [2]: no binding (tested: 100 nM)
- 100 nM Ag Bound [3]: 2 RU
- binding result [3]: no binding (tested: 100 nM)
- Kd [4]: ≤ 0.0186 nM
- t1/2 [4]: ≥ 1160 min
- koff [5]: ≤ 1e-05 s⁻¹
- 50 nM Ag Bound [6]: 93 RU
- kon [6]: 537000 M⁻¹ s⁻¹
- 100 nM Ag Bound [7]: 0 RU
- 100 nM Ag Bound [8]: 0 RU
- 100 nM Ag Bound [9]: 63 RU
- Kd [9]: 5.51 nM
- koff [9]: 0.00147 s⁻¹
- kon [9]: 266000 M⁻¹ s⁻¹
- t1/2 [9]: 8 min
